Experiment: yeast display, Sf9 membrane polyspecificity reagent, FACS + sequencing; frameworks hold sequencing errors
How it was run: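 Galactose-induced (36–48 hours) yeast carrying a synthetic nanobody display library were exposed to 10% biotinylated, detergent-solubilized Sf9 membrane reagent at 4 °C for 1 hour. FACS followed streptavidin microbead enrichment, using low and high (top ~1%) gates for expression (anti-HA) and reagent binding (streptavidin). Colony PCR, MiSeq 2 × 250 sequencing and CDR-length filtering followed. Labels for polyreactivity reflect the gate of origin.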

| Sequence | polyreactivity (PSR sort gate) |
| --- | --- |
| QVQLVESGGGLVQAGGSLRLSCAASGSNFGSYTMGWSRQAPGKERELVAAISLGGGSTYYADSVKGRFTISRDNAKNTVYLQMNSLKPEDTAVYYCAAGFTDPYDYWGQGTQVTVSS | low polyreactivity |
| QVQLVESGGGLVQAGGSLRLSCAASGSNFGYYPMGWYRQATGKERELVAAISWSDGSTYYADSVKGRFTISRDNAKNTVYLQMNSRKPEDTAVYYCAARFTPYITSDDGHYDYWGQGTQVTVSS | low polyreactivity |
| QVQLVESGGGLVQAGGSLRLSCAASGSNFGYYTLGWYRQAPGKERELVAAIRYGDGSTNYADSVKGRFTISRDNAKNTVYLKMNSLKPEDTAVYYCATRSQRGYRGYNYWGQGTQVTLSS | high polyreactivity |
| QVQLVESGGGLVQAGGSLRLSCAASGSNFIPNAMGWYRQAPGKERELVAAIRSGRSTYYADSVKGRITISRDNANNTVYLQMNSLQPEATAVYYCAADTYPYYYYLARYYYWGQCTQVTVSS | low polyreactivity |
| QVQLVESGGGLVQAGGSLRLSCAASGSNFKTYAMGLYRQAPGKERELVAAISSGGSTYYADSVKGRFTISRDNAKITVYLQMNSLKPEDTAVYYCAADPWGAFVSFASYYYWGQATQVTVSS | low polyreactivity |
| QVQLVESGGGLVQAGGSLRLSCAASGSNFRDNGMGWYRQAPGKERELVAAINSGDSTYYADSVKGRFTISRDNAKNTVYLQMNSLKPEDTAVYYCNADDRRALSQRQYDWYDYWGQGTQVTVSS | low polyreactivity |
| QVQLVESGGGLVQAGGSLRLSCAASGSNFRFYVMGWYRQAPGKERELVAAISIGGSTNYADSVKGRFTISRDNAKNSVYLQMNSLKPEDTAVYYCAADYWYGAGLPHGTEFDYWGQGTQVTVSS | low polyreactivity |
| QVQLVESGGGLVQAGGSLRLSCAASGSNFRGYTMGWYRQAPGKERELVANISTSVGRTYYADSVKGRFTISRDNAKNTVFLQMNSLKPEDTAVYYCNARRAYRWKPDTGSAGMDYWGQGTQVTVSS | high polyreactivity |
| QVQLVESGGGLVQAGGSLRLSCAASGSNFRRNAMGWYRQAPGKERELVAAINSRGGSTYYADSVKGRFTISRDNAKNTVYLQMNSLKPEDTAVFYCATARFLRYDRYDDYWGQGTQVTVSS | low polyreactivity |
| QVQLVESGGGLVQAGGSLRLSCAASGSNFSYNAMGWYRQAPGKERELVATITTGGRTSYADSVKGRFTISRDNAKNTVYLQMNSLKPEDTAVYYCAAVGRFSSRPRVVYYGYDYWGQGTQVTVSS | low polyreactivity |
| QVQLVESGGGLVQAGGSLRLSCAASGSNFTANAMGWYRQAPGKERELVAAISRSGGRTYYADSVKGRFTISRDNAKNTVYLQMNSLKPEDTAVYYCNVGRFNTSGYDYWGQGTQVTVSS | high polyreactivity |
| QVQLVESGGGLVQAGGSLRLSCAASGSNFVIYAMGWYRQAPGKERELVAAIRFSTGSTYYADSVKVRFTNSRDYAKNTVYLQMNSLKPEDTAVYYCAAATWQWPWYDYWGQGTQVTVSS | high polyreactivity |
| QVQLVESGGGLVQAGGSLRLSCAASGSNFYFYAMGWYIQAPGKERELVADITWSGGSTYYADSVKGRFTISRDNAKNTVYLQMNSLKREDTAVYYCATDSWFGLEYWGQGTQVTVSS | high polyreactivity |
| QVQLVESGGGLVQAGGSLRLSCAASGSNFYGNAMGWYRQAPGKERELVAAISRSGGRSYYADSVKGRFTISRDNAKNTVYLHMNSLKPEATAVYYCAARQYQATLQYGYYPGYGYWGQGTQVTVSS | high polyreactivity |
| QVQLVESGGGLVQAGGSLRLSCAASGSNFYGYAMGWYRQAPGKERELVAAISSGGRTKYADSVKGRFTISRDNAKNTVYLQMNSLKPEDTAVYYCNVSYLVDRWKFGWSMDYWGQGNQVTVSS | low polyreactivity |
| QVQLVESGGGLVQAGGSLRLSCAASGSNIGLNAMGWSRQAPGKEREWVAAITRISGRTRYADSVKRRFTISRDNAKNTVSLQMNSLKPEDTAVYYCDARFQSTNGHKYYYWGQGTQVTVSS | high polyreactivity |
| QVQLVESGGGLVQAGGSLRLSCAASGSNLTFYAMGWYRQAPGKERELVAAITWRGGSTYYADSVKGRFTISRDNAKNTVYLQMNSLKPEDTAVYYCAAEQVGYYLNWRDYWGQGTQVTVSS | high polyreactivity |
| QVQLVESGGGLVQAGGSLRLSCAASGSNLVHYAIGWYRQAPGKERELVAASSRGGSTNYADSVKGRFTISRDNAKNTVYLQMNSLKPEDTAVYYCAARRPWGEYYWGQGTQVTVSS | low polyreactivity |
| QVQLVESGGGLVQAGGSLRLSCAASGSPFDYNAMGWYRPAPGKERELVAASDVSGDNTYYADSVKGRFTISRDNAKNTVYLQMNSLKPEETAVYYCNADDYWRGTSDYDYWGQGTQVTVSS | low polyreactivity |
| QVQLVESGGGLVQAGGSLRLSCAASGSPFGDSAMGWYRQAPGKERELVAAISVYGASTYYADSVKGRFTISRDNAKNTVYLHMNSLKPEDTEVYYCAATYDTIGDSWGQGTQVTVSS | low polyreactivity |
| QVQLVESGGGLVQAGGSLRLSCAASGSPFGSNAMGWYRQAPGKERELVAAISYGGDRTYYADSVKGRFTISRDNAKNTVYLQMISLKPEDTALYYCNARIYKGYNYWGQGTQVTVSS | high polyreactivity |
| QVQLVESGGGLVQAGGSLRLSCAASGSPFRRYAMGWYRQAPGTERELVAAISWRGGSTRYADSVKGRFTLSRDNAKNTVYLQMNSLKPEDTAVYYCAALGSYGNPPSYNYWGQGTQVTVSS | high polyreactivity |

| Sequence | polyreactivity (PSR sort gate) |
| --- | --- |
| QVQLVESGGGLVQAGGSLRLSCAASGSPFSVYAMGWYRQAPGKERELVAAISWTVGSTYYADSVKGRFTISRDTAKNTVYLQMNSLIPEDTAVYYCAADIYWHYDYWGQGTQVTVSS | high polyreactivity |
| QVQLVESGGGLVQAGGSLRLSCAASGSSFDDKAMGWYRQAPGKERELVASITYRGGSTYYADSVKGRFTISRDHAKNTVNLHIKSLKPEVTAVYYCDKGHYFKYDYWGQGTQVTVSS | low polyreactivity |
| QVQLVESGGGLVQAGGSLRLSCAASGSSFDWNAMGWYRQAPGKERELVASITGSGGGTNYADSVKGRFTISRDNAKNTVYLQMNSLKPEDTAVYYCNADGLNFDGHEYWGQGTQVTVSS | low polyreactivity |
| QVQLVESGGGLVQAGGSLRLSCAASGSSFDWYVMGWYRQAPGKERELVAVISRSGGSTYYADSVKGRFTISRDNAKITVYLQMNSLTPEDTAVYSCGADSRSYYRDVDYWGQGTQVTVSS | low polyreactivity |
| QVQLVESGGGLVQAGGSLRLSCAASGSSFISNTMGWYRQAPGKERELVAAISSGGDTSYADSVKGRFTISRDNAKNTVYLQMNILKPEDTAVYYCNVDTSATSYSSEYDYWGQGTQVTVSS | low polyreactivity |
| QVQLVESGGGLVQAGGSLRLSCAASGSSFLSNTMGWYRQAPGKECELVAAITSGGDTSYADSVKGRFTISRDNAKNTVYLHMKILKADDTAVYYCNVDTSATCYSSEYDYWGQGTQVSVSS | low polyreactivity |
| QVQLVESGGGLVQAGGSLRLSCAASGSSFPGNAMGWYRQAPGKERELVARINDGADTNYADSVKGRFTISRDNAKNTVYLQMNSLKPEDTAVYYCAKPYYDGRTHFDSWGQGTQVTVSS | low polyreactivity |
| QVQLVESGGGLVQAGGSLRLSCAASGSSFRAYAMGWYRQAPGKERELVAVITYSGDRTYYADSVKGRFTISRDNAKNTVYLQMNSLKPEDTAVYYCAADLQYWHSYSYDDYYYWGQGTQVTVSS | low polyreactivity |
| QVQLVESGGGLVQAGGSLRLSCAASGSSFRRNAMGWYRQAPGKERELVAAITRGGGSTYYADSVKGRFTISRDNAKNTVYLQMNSLKPEDTAVYYCAAQISATRETMDYWGQGTQVTVSS | high polyreactivity |
| QVQLVESGGGLVQAGGSLRLSCAASGSSFSHNVMGWYRQAPRKERELVATINWSGGSTYYADSVKGRFTISRDNAKKSDYLQMNSLKPEDTAVYYCAADRQITVYAYDYWGQGTQVTVSS | low polyreactivity |
| QVQLVESGGGLVQAGGSLRLSCAASGSSFYPYAMGWYRQAPGKERELVAAISRRGGSTYYADSVKGRFTISRDNAKNTVYLQMNSLKPVDTEVYYCNVVTDSPYPVDYWGQGTQVTVSS | high polyreactivity |
| QVQLVESGGGLVQAGGSLRLSCAASGSTCDYNAMGWYRQAPGKERELVAAITSTGGNTYYADSVKGRFTISRDKAKNTVYLQMNSLKPADTAVYYCNKDVARYPYGKFDYWGQGTQVTVSS | low polyreactivity |
| QVQLVESGGGLVQAGGSLRLSCAASGSTCVNNDMGLYRQAPGKEGELVAGITTSGGSTYYADSVKGRFTISRDKAKNTVYLQMNSLKPEDTAVYYCAARAFSAWLEMDYWGQCTQVTVSS | low polyreactivity |
| QVQLVESGGGLVQAGGSLRLSCAASGSTFAANAMGWYRQAPGKERELVAAITSSGGSTYYADSVKGRFTISRDNAKNTVYLQMNSLKPEDTAVYYRNKDIERYVRIYDSWGQGTQVTVSS | low polyreactivity |
| QVQLVESGGGLVQAGGSLRLSCAASGSTFAAYAMGWYRQAPGKERELVAAISGGRTYYADSVKGRFTISRDNAKNTVYLEMYSLKPEDTAVYYCAKRYFYYTAFNAYGYWGQGTQVTVSS | high polyreactivity |
| QVQLVESGGGLVQAGGSLRLSCAASGSTFAAYVMGWYRQAPGKERELVAAISTSGGGTYYADSVKGRFTISRDTAKNTVYLQMNSLKPEDTAVYYCAADYGSGSVSYDYWGQGTQVTVSS | low polyreactivity |
| QVQLVESGGGLVQAGGSLRLSCAASGSTFAFYAMGWYRPAPGKERELVAAITWDGGTTYYADSVKGRFTIARDNAKNTVYLQMNSLKPEDSAVYYCAADYASVSIYDNVPSAPGYDYWGQGTQVTVSS | low polyreactivity |
| QVQLVESGGGLVQAGGSLRLSCAASGSTFAFYAMGWYRQAPGKERELVAAISFSGGSTYYADSVKGRFTISRDNAKNTVYLQMNSLKPEDTAVYYCNARYPNTRKYDYWGQGTQVTVSS | high polyreactivity |
| QVQLVESGGGLVQAGGSLRLSCAASGSTFAGNAMGWSRQAPGKERELVAGITSSGARTYYADSVKGRFTISRDNAKNTVYLQMNSLKPEDTAVYYCNKYHFSPYDYWGQGTQVTVSS | high polyreactivity |
| QVQLVESGGGLVQAGGSLRLSCAASGSTFAGNAMGWYRQAPGKEREFVAAITISVGSTYYADSVKGRFTISRDNAKNTVYLQMNSLTPEDTAVYYCAADFAYYVSLPSRFVYAGYYYWGQGTQVTVTS | low polyreactivity |
| QVQLVESGGGLVQAGGSLRLSCAASGSTFAGNAMGWYRQAPGKERELVAASTFSGGRTDYADSVKGRFTISRDNAKNTVYLQMNSLNPEDSAVYYCAAPADDTVHYQNYYWGQGTQVTVSS | low polyreactivity |

Source: the nanobody polyreactivity screen of Harvey et al. (2022)
